Data taken from patent publication US20240377414A1 (BELLYLABS, published 2024).
Positions count from the first letter of the chain named.

B1: monoclonal antibody 2H7 (antibody, V domains shown)
VH: DVQLQESGPDLVKPSQSLSLTCTVTGYSITSGYSWHWIRQFPGNKLEWMGYIHYSGRTNYNPSLKSRISITRDTSKNQFFLQLNSVTTEDTATYYCARSMDYWGQGTSVSVSS
VL: DIKMTQSPSSMYASLGERVTITCKASQDIKTYLNWYQQKPWKSPKTLIYYATSLADGVPSRFSGSGSGQDFSLTISSLESDDTATYFCLQHGESPPTFGGGTKLEIK
notes: Mouse monoclonal IgG from hybridoma; Mostly used as capture antibody on the test line; gold-labelled as detection antibody in the pair 2F10-2H7; also called capture antibody; hybridoma CCTCC C2021209
B2: monoclonal antibody 9B8 (antibody, V domains shown)
VH: EVKLEESGGGLVQPGGSMKLSCAASGFTFSDAWMDWVRRSPEKGLEWIAEIRSKAKNHITYYAESVKGRFTISRDDSKSSVYLQMNSLRTEDSGIYYCTGGFAYWGQGTLVTVSA
VL: DAVMTQNPLSLPVSLGDQASISCRSSQSLEKSNGNTYLNWYLQKPGQSPQLLIYRVSNRFSGVPDRISGGGSGTDFTLKISRVEAEDLGVYFCVQVSHVPFTFGSGTKLEIK
notes: also called second detection antibody; hybridoma CCTCC C2021211
B3: monoclonal antibody 2A4 (antibody, V domains shown)
VH: AVNLEESGGGLVLPGGSMKLSCTASGFTFSDAWMDWVRRSPEKGLEWLAEIRDETNNHITYYAESVKVRFIISRDDSKSSVYLQMNNLRPEDTGIYYCAAGFAYWGQGTLVTVSA
VL: B2 VL with N7T, P12S, N35K, P64L, I67F, G70S, V90L, V94L
notes: also called first detection antibody; hybridoma CCTCC C2021210

Key:
[1] = biological target: T1, canine relaxin (mature relaxin in pregnant dog serum) (dog, UniProt Q9TRM8 154-177; Q9TRM8 26-60); test: hybridoma screen for activity against relaxin-positive pregnant dog serum
T1 construct: mature; Endogenous relaxin in serum, plasma or whole blood of pregnant dogs; also called dog relaxin
T1 sequence (Q9TRM8 154-177 limits assumed, chain 1 of 2): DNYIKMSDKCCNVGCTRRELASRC
T1 sequence (Q9TRM8 26-60 limits assumed, chain 2 of 2): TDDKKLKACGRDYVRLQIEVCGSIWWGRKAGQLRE
Procedure: Monoclonal IgG antibodies were prepared by immunizing mice with preprorelaxin (Bioraytec Ltd., Zhuhai, China) using standard laboratory methods known in the art. Anti-preprorelaxin antibody expressing hybridomas were derived by fusing myeloma cells with splenocytes from the immunized mice. The antibodies produced by hybridoma clonal cell lines were initially screened for activity against relaxin-positive pregnant dog serum. Relaxin positivity of the serum was confirmed using the FASTest RELAXIN in vitro test (Diagnostik Megacor, Hörbranz, Austria). The serum contains mature relaxin as preprorelaxin is not present in serum, and so the selected antibodies are reactive against relaxin and not only preprorelaxin.

[2] = biological target: T1, canine relaxin (mature relaxin in …); test: hybridoma screen against relaxin-positive dog serum

Binder | binding result [1] | binding result [2]
B1 | binds | –
B2 | – | binds
B3 | – | binds
